Measured values taken from US11591404B2, “Treatment of cancer using a CD123 chimeric antigen receptor” (Novartis AG, priority 2014, dated 2023).

Tests used:
[1] = tested on: cynomolgus CD123; assay: Cross-reactivity of anti-CD123 clones against cynomolgus CD123; assay type: binding
[2] = tested on: MOLM14 (CD123+ tumor cells); assay: CD107a degranulation of CART cells, 2 hours; assay type: cell-based; details: 2-hr in vitro assay, CD123+ targets
Method: To assess degranulation, CART cells (NVS 2-4, 1172 and 1176 clones) were thawed, rested overnight at a concentration of 2e^6 cells/ml in T cell media. Cells were then counted and resuspended at 1e^6 cells/ml the following day. Tumor target cells (TCM, PMA/iono, MOLM14 or JURKAT) were resuspended at 5e^6 cells/ml. Cells were plated at a ratio of 1e^5 T cell: 5e^5 tumor cell in 48 well plates and incubated for 2 hours in the presence of anti-CD107a PECy7, anti-CD49d purified, and anti-CD28 purified antibodies. Cells were then harvested, stained with anti-CD3 APC and acquired using BD LSR Fortessa (FIG. 7).

B1: CAR123-3: fully human anti-CD123 scFv CAR with 4-1BB and CD3zeta; CAR amino acid SEQ ID NO: 100 (protein, listed as Homo sapiens)
chain: MALPVTALLLPLALLLHAARPQVQLVQSGAEVKKPGASVKVSCKASGYIFTGYYIHWVRQAPGQGLEWMGWINPNSGGTNYAQKFQGRVTMTRDTSISTAYMELSGLRSDDPAVYYCARDMNILATVPFDIWGQGTLVTVSSGGGGSGGGGSGGGGSDIQLTQSPSSLSASVGDRVTITCRASQSISSYLNWYQQKPGKAPKLLIYAASSLQSGVPSRFSGSGSGTDFTLTVNSLQPEDFATYYCQQGDSVPLTFGGGTKVEIKTTTPAPRPPTPAPTIASQPLSLRPEACRPAAGGAVHTRGLDFACDIYIWAPLAGTCGVLLLSLVITLYCKRGRKKLLYIFKQPFMRPVQTTQEEDGCSCRFPEEEEGGCELRVKFSRSADAPAYKQGQNQLYNELNLGRREEYDVLDKRRGRDPEMGGKPRRKNPQEGLYNELQKDKMAEAYSEIGMKGERRRGKGHDGLYQGLSTATKDTYDALHMQALPPR
For B1, the “cross-reactivity against cynomolgus CD123” value (“cross-reactivity” for short) [1] was “cross-reactive against cynomolgus CD123”.

B2: 1172: murine CD123 CAR construct, CD123 4-1BBCD3z-CAR, SEQ ID NO: 707, described in PCT/US2014/017328 (protein)
chain: MALPVTALLLPLALLLHAARPGSDIVLTQSPASLAVSLGQRATISCRASESVDNYGNTFMHWYQQKPGQPPKLLIYRASNLESGIPARFSGSGSRTDFTLTINPVEADDVATYYCQQSNEDPPTFGAGTKLELKGGGGSGGGGSSGGGSQIQLVQSGPELKKPGETVKISCKASGYIFTNYGMNWVKQAPGKSFKWMGWINTYTGESTYSADFKGRFAFSLETSASTAYLHINDLKNEDTATYFCARSGGYDPMDYWGQGTSVTVSSASSGTTTPAPRPPTPAPTIASQPLSLRPEACRPAAGGAVHTRGLDFACDIYIWAPLAGTCGVLLLSLVITLYCKRGRKKLLYIFKQPFMRPVQTTQEEDGCSCRFPEEEEGGCELRVKFSRSADAPAYKQGQNQLYNELNLGRREEYDVLDKRRGRDPEMGGKPRRKNPQEGLYNELQKDKMAEAYSEIGMKGERRRGKGHDGLYQGLSTATKDTYDALHMQALPPR
For B2, the “cross-reactivity” value [1] was “is not”.

B3: 1176: murine CD123 CAR construct, CD123 4-1BBCD3z-CAR (26292), SEQ ID NO: 708, described in PCT/US2014/017328 (protein)
chain: MALPVTALLLPLALLLHAARPGSDVQITQSPSYLAASPGETITINCRASKSISKDLAWYQEKPGKTNKLLIYSGSTLQSGIPSRFSGSGSGTDFTLTISSLEPEDFAMYYCQQHNKYPYTFGGGTKLEIKGGGGSGGGGSSGGGSQVQLQQPGAELVRPGASVKLSCKASGYTFTSYWMNWVKQRPDQGLEWIGRIDPYDSETHYNQKFKDKAILTVDKSSSTAYMQLSSLTSEDSAVYYCARGNWDDYWGQGTTLTVSSASSGTTTPAPRPPTPAPTIASQPLSLRPEACRPAAGGAVHTRGLDFACDIYIWAPLAGTCGVLLLSLVITLYCKRGRKKLLYIFKQPFMRPVQTTQEEDGCSCRFPEEEEGGCELRVKFSRSADAPAYKQGQNQLYNELNLGRREEYDVLDKRRGRDPEMGGKPRRKNPQEGLYNELQKDKMAEAYSEIGMKGERRRGKGHDGLYQGLSTATKDTYDALHMQALPPR
For B3, the “cross-reactivity” value [1] was “cross-reactive against cynomolgus CD123” and the “T cell degranulation (CD107a)” value [2] was 65%.

B4: CAR123-4: fully human anti-CD123 scFv CAR with 4-1BB and CD3zeta; CAR amino acid SEQ ID NO: 101 (protein, listed as Homo sapiens)
chain: MALPVTALLLPLALLLHAARPQVQLQQSGAEVKKSGASVKVSCKASGYTFTDYYMHWLRQAPGQGLEWMGWINPNSGDTNYAQKFQGRVTLTRDTSISTVYMELSRLRSDDTAVYYCARDMNILATVPFDIWGQGTMVTVSSASGGGGSGGRASGGGGSDIQMTQSPSSLSASVGDRVTITCRASQSISSYLNWYQQKPGKAPKLLIYAASSLQSGVPSRFSGSGSGTDFTLTISSLQPEDFATYYCQQGDSVPLTFGGGTKVEIKTTTPAPRPPTPAPTIASQPLSLRPEACRPAAGGAVHTRGLDFACDIYIWAPLAGTCGVLLLSLVITLYCK
In the case of B4, the “cross-reactivity” value [1] is reported as “cross-reactive against cynomolgus CD123”.
